Measurements taken from patent US20090035322A1 (Regeneron, published 2009).

T1: human CD20 (human, UniProt P11836 1-297)
T1 sequence: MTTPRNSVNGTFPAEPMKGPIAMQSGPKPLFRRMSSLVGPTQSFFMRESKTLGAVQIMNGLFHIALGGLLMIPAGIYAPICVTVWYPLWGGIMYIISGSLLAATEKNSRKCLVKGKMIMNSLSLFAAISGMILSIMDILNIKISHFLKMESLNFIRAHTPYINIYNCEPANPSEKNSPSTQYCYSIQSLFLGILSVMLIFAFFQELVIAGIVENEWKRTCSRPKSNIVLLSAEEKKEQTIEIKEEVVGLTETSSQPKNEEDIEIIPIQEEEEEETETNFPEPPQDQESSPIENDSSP

T2: mutant human CD20 #6 (Y77F, N166D) (human, UniProt P11836 1-297)
T2 construct: Stably expressed on MG87 cells
T2 chain: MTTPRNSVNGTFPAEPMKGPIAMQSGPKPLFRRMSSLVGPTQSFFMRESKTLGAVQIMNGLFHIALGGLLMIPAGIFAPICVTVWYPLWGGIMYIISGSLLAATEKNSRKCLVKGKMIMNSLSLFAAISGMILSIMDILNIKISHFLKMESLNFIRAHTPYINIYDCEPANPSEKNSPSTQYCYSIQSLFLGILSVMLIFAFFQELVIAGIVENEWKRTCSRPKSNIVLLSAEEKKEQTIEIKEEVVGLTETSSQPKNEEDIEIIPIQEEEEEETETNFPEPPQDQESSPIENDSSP

T3: mutant human CD20 #9 (N163D, N166D) (human, UniProt P11836 1-297)
T3 construct: Stably expressed on MG87 cells
T3 chain: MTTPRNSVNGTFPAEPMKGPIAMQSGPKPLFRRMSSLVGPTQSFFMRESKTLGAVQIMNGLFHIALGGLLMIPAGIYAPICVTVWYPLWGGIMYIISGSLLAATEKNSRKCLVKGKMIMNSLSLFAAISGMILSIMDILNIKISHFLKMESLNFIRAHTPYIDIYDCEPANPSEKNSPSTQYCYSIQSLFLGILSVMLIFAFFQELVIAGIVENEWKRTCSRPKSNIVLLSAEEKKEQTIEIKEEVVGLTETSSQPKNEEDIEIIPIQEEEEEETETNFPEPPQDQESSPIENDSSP

T4: mutant human CD20 #1 (Y77F) (human, UniProt P11836 1-297)
T4 construct: Human residues replaced by mouse residues; stably expressed on MG87 cells
T4 sequence: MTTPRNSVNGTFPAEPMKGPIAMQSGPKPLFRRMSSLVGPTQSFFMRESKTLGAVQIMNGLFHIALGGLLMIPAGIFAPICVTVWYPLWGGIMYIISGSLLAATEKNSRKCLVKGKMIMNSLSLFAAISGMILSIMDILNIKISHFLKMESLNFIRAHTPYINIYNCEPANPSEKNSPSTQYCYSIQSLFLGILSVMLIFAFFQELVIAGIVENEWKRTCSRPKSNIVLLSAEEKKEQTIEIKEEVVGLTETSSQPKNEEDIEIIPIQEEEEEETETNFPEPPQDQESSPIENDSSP

T5: mutant human CD20 #7 (Y77F, N163D) (human, UniProt P11836 1-297)
T5 construct: Stably expressed on MG87 cells
T5 chain: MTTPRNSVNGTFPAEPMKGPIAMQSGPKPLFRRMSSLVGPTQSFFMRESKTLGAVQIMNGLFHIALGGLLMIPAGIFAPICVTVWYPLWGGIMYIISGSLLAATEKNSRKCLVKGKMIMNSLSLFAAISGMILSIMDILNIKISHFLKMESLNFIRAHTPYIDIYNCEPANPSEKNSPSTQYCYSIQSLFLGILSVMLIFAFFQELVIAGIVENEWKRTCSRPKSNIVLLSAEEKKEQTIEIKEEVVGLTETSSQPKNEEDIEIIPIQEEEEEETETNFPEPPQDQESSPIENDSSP

T6: mutant human CD20 #2 (N163D) (human, UniProt P11836 1-297)
T6 construct: Stably expressed on MG87 cells
T6 sequence: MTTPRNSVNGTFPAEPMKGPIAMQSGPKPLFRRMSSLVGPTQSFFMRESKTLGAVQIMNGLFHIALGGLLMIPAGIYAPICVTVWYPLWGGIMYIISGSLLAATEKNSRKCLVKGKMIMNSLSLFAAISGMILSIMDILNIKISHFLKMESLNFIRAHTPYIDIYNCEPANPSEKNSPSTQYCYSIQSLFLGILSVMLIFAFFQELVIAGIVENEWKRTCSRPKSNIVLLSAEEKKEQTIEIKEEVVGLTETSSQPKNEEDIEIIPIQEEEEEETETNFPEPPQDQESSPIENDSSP


Assays:
[1] = target: T1, human CD20; experiment: cell-based or functional assay
[2] = target: T1, human CD20; experiment: cell-based or functional assay; remark: listed apart in the source
[3] = target: T1, human CD20; experiment: flow cytometry, hCD20-transfected MG87 cells
Description: Briefly, parental MG87 and human CD20-transfected MG87 cells were incubated for 30 min at 4° C. with each of the 15 human antibodies and the two control antibodies, followed by incubation with PE-conjugated anti-human IgG antibody. Binding was assessed by flow cytometry. Fluorescence intensities were compared with binding to the parental cell line and control isotype-matched sample.

[4] = target: T2, mutant human CD20 #6 (Y77F, N166D); experiment: FACS, mutant-hCD20 MG87 cells; 100%=best antibody
Description: (§1) Briefly, approximately 1×10⁶ cells from each stably transfected cell line expressing a mutant human CD20 were collected and incubated with each anti-human antibody, at 10 μg/ml, on ice for 1 hr, followed by incubation with APC-conjugated goat anti-human IgG (Jackson Immunolabs), at 10 μg/ml, on ice for 45 min. For each antibody, binding to each mutant human CD20 was assessed by flow cytometry.

[5] = target: T3, mutant human CD20 #9 (N163D, N166D); experiment: FACS, mutant-hCD20 MG87 cells; 100%=best antibody
Description: as §1

[6] = target: T4, mutant human CD20 #1 (Y77F); experiment: FACS, mutant-hCD20 MG87 cells; 100%=best antibody
Description: as §1

[7] = target: T5, mutant human CD20 #7 (Y77F, N163D); experiment: FACS, mutant-hCD20 MG87 cells; 100%=best antibody
Description: as §1

[8] = target: T6, mutant human CD20 #2 (N163D); experiment: FACS, mutant-hCD20 MG87 cells; 100%=best antibody
Description: as §1

Row | Binder | CDC, Daudi EC50 [1] | CDC, RL EC50 [1] | ADCC EC50 (pM), Daudi + PBMC [2] | Total Mean Fluorescent Intensity [3] | Percent of Binding to Mutant Human CD20 [4] | Percent of Binding to Mutant Human CD20 [5] | Percent of Binding to Mutant Human CD20 [6] | Percent of Binding to Mutant Human CD20 [7] | Percent of Binding to Mutant Human CD20 [8]
1 | 3B9-10 (antibody, V domains shown, Fully human IgG, constant region not specified; also called 3B9-10N) VH: EVQLVESGGGLVQPGRSLRLSCVASGFTFNDYAMHWVRQAPGKGLEWVSVISWNSDSIGYADSVKGRFTISRDNAKNSLYLQMHSLRAEDTALYYCAKDNHYGSGSYYYYQYGMDVWGQGTTVTVSS VL: EIVMTQSPATLSVSPGERATLSCRASQSVSSNLAWYQQKPGQAPRLLIYGTSTRATGIPARFSGSGSGTEFTLTISSLQSEDFAVYYCQQYNNWPLTFGGGTKVEIK | 1.86 nM | 8.84 nM | 6.77 pM | 2990 | 1% | 4% | 56% | 1% | 6%
2 | 6F6-1 (antibody, V domains shown, Fully human IgG, constant region not specified; also called 6F6-1N) VH: AVQLVESGGGLVQPGRSLRLSCAASGFTFRDYAMHWVRQGPGKGLEWVSGISWNTDYIGYADSVKGRFTISRDNAKNSLYLQMNSLRPEDTALYYCAKDARYGRDNYYGMDVWGQGTTVTVSS VL: EIVMTQSPATLSVSPGERATLSCRASQSVSHNLAWYQQKPGQAPRLLIYGAYTRATGIPDRFSGTGSGTEFTLTISSLQSEDFAVFYCQQYNNWPLTFGGGTKVEIK | 0.56 nM | 1.2 nM | 5.15 pM | 3390 | 16% | 4% | 100% | 2% | 74%
3 | 9E4-20 (antibody, V domains shown, Fully human IgG, constant region not specified; also called 9E4-20N) VH: EVQLVESGGGLVQPGRSLRLSCAASGFTFYDYAMHWVRQAPGKGLEWVSGISWNSDYIGYADSVKGRFTISRDNAKNSLYLQMNSLRAEDTALYYCAKDARYGRNNYYGMDVWGPGTTVTVSS VL: not shown | 1.53 nM | 1.7 nM | 2.37 pM | 2910 | 1% | 3% | 14% | 1% | 0%
4 | 9C3-8 (antibody, V domains shown, Fully human IgG, constant region not specified; also called 9C3-8N) VH: EVQLVESGGGLVQPGRSLRLSCAASGFSFHDYAMHWVRQAPGKGLEWVSGISWNSDSLGYADSVKGRFTISRDNAKNSLYLQMNSLRAEDTALYYCAKDNHYGSGSHYYYKYGMDVWGQGTTVTVSS VL: not shown | 2.22 nM | 11.1 nM | 11 pM | 2910 | 0% | 3% | 36% | 1% | 0%
5 | 8G6-5 (antibody, V domains shown, Fully human IgG, constant region not specified; also called 8G6-5N) VH: EVQLAESGGDLVQSGRSLRLSCAASGITFHDYAMHWVRQPPGKGLEWVSGISWNSDYIGYADSVKGRFTISRDNAKKSLYLQMNSLRPDDTALYYCVKDFHYGSGSNYGMDVWGQGTTVTVSP VL: EIVMTQSPATLSMSPGERATLSCRASQSVSRNLAWYQQKVGQAPRLLISGASTRATGIPARFSGSGSGTEFTLTINSLQSEDFAVYYCQQSNDWPLTFGQGTRLEIK | 0.21 nM | 1.06 nM | 14.8 pM | 3410 | 5% | 4% | 86% | 1% | 45%
6 | 7E1-13 (antibody, V domains shown, Fully human IgG, constant region not specified; also called 7E1-13N) VH: EVQLVESGGGLVQPGRSLRLSCTASGFTFGDFPMHWVRQAPGKGLEWVSGITWNSGSIVYADSVKGRFTISRDNAKNSLYLQMNSLRTEDTALYYCAKDSHYGSGNFYYYYYGMDVWGQGTTVTVSS VL: not shown | 1.59 nM | 5.81 nM | 2.14 pM | 3080 | 1% | 4% | 94% | 1% | 49%
7 | 9D4-7 (antibody, V domains shown, Fully human IgG, constant region not specified; also called 9D4-7N) VH: EVQLVESGGGLVQPGRSLRLSCAASGFTFYDYAMHWVRQAPGKGLEWVSGISWNSDTIGYADSVKGRFTISRDNAKNSLYLQMNSLRAEDTALYYCTKDGSYGHFYSGLDVWGQGTTVTVSS VL: EIVLTQSPATLSLSPGERATLSCRASQSVSSYLAWYQQKPGQAPRLLIYVASNRATGIPARFSGSGSGTDFTLTISSLEPDDFAVYYCQQRYYWPLTFGGGTKVEIK | 0.22 nM | 0.83 nM | 1.53 pM | 3160 | 0% | 4% | 67% | 2% | 2%
8 | 10F2-13 (antibody, V domains shown, Fully human IgG, constant region not specified; also called 10F2-13N; ab 10F2-13) VH: EEQLVESGGDLVQPGRSLRLSCAASGFTFHDYTMHWVRQAPGKGLEWVSGISWNSGSLGYADSVKGRFTISRDNAKKSLYLQMNSLRAEDTALYYCAKDPSYGSGSYHSYYGMDVWGQGTTVTVSS VL: EIVLTQSPATLSLSPGERATLSCWASQSISRYLVWYQQKCGQAPRLLIYEASKRATGIPVRFSGSGSGTDFTLTISSLESEDFAVYYCQQRFNWPLTFGGGTKVEIK | 0.17 nM | 0.36 nM | 6.68 pM | 3400 | 1% | 4% | 79% | 2% | 54%
